For the series, the target named is T1, SERBP1 (human, UniProt Q8NC51 1-408).
T1 sequence: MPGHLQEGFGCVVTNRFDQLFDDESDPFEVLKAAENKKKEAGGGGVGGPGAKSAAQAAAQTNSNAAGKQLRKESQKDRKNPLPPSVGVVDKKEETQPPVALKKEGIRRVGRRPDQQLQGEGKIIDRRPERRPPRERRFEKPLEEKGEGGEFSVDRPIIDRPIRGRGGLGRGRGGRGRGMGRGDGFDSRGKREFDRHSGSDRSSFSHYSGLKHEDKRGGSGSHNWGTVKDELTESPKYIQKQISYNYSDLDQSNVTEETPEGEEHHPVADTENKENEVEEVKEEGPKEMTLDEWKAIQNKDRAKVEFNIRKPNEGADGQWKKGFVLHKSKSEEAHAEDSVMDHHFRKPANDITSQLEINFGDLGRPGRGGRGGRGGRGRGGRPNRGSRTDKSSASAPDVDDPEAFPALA
Kind of series: fluorescence polarization; 5 nM RNA, 0-1000 nM protein; FP: 10 mM HEPES pH 7.5, 50 mM KCl, room temperature. The note with it: protein: recombinant; tags: N-terminal His6, proteolytically removed (Methods; Results call it an N-terminus His6 fusion); label: 5'-fluorescein; single strand.

Regarding GCGCGGG (ssRNA) [SERBP1 RNA 7-mer], the Kd (commonly the concentration at which binding is half-saturated) is ~47 nM.

The record behind these values is article PMC7412812, “The RNA-binding protein SERBP1 functions as a novel oncogenic factor in glioblastoma by bridging cancer metabolism and epigenetic regulation”.
